Tests used:
[1] = biological target: fibrin clots (formed from fibrinogen with bovine thrombin); experiment: fibrin clot binding; ratio against full length t-PA
[2] = biological target: fibrin clots (formed from fibrinogen with bovine thrombin); experiment: fibrin clot binding at 0.2 mg/mL fibrinogen; bound = total minus free enzyme in the supernatant
[3] = biological target: fibrin clots (formed from fibrinogen with bovine thrombin); experiment: fibrin clot binding at 0.3 mg/mL fibrinogen; bound = total minus free enzyme in the supernatant
[4] = biological target: chimeric truncated and mutant variant of t-PA (truncated-mutant t-PA, KHRR 128-131 substituted with AAAA) (human) (UniProt P00750); experiment: cell-based or functional assay
[5] = biological target: full length t-PA (tissue-type plasminogen activator), commercially available t-PA, Actylase (human) (UniProt P00750); experiment: cell-based or functional assay

Substance | fibrin affinity relative to full length t-PA (set to 100%) [1] [%] | fibrin affinity (percent of enzyme bound to fibrin clot) [2] [%] | fibrin affinity (percent of enzyme bound to fibrin clot) [3] [%] | residual activity after inhibition by rPAI-1 [4] [%] | residual activity after inhibition by rPAI-1 [5] [%]
chimeric truncated t-PA (GHRP-SYQ-K2S) (from UniProt P00750 211-562) (enzyme) | 86 | 38 | 46 | – | –
full length t-PA (tissue-type plasminogen activator), commercially available t-PA, Actylase (from UniProt P00750 36-562) (enzyme) | – | 44 | 53 | – | –
human rPAI-1 (recombinant plasminogen activator inhibitor-1) (from UniProt P05121 24-402) | – | – | – | 85 | 65
